Here are results for 1 molecule from US9127040B2, “Regulation of sodium channels by PLUNC proteins” (The University of North Carolina at Chapel Hill, priority 2011, dated 2015).

For this assay, the target named is T1, αβγENaC (Rattus norvegicus, UniProt P37089+P37090+P37091, S518C).
T1 construct: expressed in transfected cells; host or cells: Xenopus laevis oocytes (cRNA injection)
T1 sequence (P37089 1-698): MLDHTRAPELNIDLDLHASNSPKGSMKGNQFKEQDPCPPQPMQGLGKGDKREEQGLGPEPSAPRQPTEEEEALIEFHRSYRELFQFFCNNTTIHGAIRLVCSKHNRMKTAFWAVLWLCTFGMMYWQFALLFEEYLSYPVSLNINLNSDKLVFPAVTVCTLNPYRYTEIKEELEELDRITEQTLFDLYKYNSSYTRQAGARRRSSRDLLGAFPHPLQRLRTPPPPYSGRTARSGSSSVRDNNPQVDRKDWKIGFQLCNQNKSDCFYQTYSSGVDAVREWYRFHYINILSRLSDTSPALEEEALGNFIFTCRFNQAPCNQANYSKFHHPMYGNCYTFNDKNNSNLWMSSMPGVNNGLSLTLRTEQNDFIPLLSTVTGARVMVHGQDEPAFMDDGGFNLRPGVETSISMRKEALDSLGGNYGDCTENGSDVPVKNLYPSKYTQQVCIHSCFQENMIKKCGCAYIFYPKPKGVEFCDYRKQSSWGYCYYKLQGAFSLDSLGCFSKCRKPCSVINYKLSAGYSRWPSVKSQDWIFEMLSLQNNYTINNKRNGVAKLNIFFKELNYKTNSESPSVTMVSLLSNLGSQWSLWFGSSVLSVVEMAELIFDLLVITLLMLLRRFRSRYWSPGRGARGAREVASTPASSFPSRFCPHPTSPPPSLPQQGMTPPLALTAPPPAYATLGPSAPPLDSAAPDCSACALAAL
T1 sequence (P37090 1-638 S518C): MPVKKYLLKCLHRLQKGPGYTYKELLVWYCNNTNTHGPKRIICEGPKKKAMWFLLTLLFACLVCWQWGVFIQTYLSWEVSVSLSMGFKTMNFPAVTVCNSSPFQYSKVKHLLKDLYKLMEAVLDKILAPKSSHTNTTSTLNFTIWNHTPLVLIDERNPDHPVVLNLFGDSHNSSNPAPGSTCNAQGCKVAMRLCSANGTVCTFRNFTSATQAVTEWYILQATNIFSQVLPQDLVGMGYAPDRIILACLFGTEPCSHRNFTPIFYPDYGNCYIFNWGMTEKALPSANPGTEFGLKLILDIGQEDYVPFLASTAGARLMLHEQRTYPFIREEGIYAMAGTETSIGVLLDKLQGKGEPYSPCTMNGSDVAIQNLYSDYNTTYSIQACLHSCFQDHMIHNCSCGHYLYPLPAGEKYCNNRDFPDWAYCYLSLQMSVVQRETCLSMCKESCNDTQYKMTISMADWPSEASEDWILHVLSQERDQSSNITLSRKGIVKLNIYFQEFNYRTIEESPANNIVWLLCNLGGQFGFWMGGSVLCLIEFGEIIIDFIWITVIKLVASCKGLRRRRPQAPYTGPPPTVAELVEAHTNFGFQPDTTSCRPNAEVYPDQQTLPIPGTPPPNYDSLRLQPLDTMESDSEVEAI
T1 sequence (P37091 1-650): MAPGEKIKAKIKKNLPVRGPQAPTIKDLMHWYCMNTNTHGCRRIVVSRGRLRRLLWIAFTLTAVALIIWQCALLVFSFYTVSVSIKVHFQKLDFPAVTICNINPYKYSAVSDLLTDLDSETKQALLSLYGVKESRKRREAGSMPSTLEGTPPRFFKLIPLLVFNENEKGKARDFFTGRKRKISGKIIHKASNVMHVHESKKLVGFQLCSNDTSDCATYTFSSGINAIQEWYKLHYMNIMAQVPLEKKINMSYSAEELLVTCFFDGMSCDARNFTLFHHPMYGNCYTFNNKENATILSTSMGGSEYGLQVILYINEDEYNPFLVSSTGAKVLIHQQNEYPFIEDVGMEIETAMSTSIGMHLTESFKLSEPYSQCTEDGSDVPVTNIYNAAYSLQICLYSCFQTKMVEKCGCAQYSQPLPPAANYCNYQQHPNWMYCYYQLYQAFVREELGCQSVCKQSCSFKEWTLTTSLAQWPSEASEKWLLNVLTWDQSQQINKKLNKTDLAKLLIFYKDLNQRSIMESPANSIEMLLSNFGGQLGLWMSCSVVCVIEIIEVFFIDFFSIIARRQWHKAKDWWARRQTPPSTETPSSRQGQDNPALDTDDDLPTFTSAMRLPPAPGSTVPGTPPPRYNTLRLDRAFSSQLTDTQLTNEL
Briefly: Amiloride-sensitive whole cell current, two electrode voltage clamp, Xenopus laevis oocytes expressing αβγENaC. The class given is cell-based. The following applies: Po increased to 1.0 by MTSET; SPLUNC1 coexpressed. Background: Two-electrode voltage clamp holds a large cell at a set potential and records current.

B1: SPLUNC1: human SPLUNC1 (SEQ ID NO:1), 256 amino acid secreted PLUNC family protein; rSPLUNC1 is the purified V5/6His-tagged recombinant form (protein, listed as Homo sapiens)
chain: MFQTGGLIVFYGLLAQTMAQFGGLPVPLDQTLPLNVNPALPLSPTGLAGSLTNALSNGLLSGGLLGILENLPLLDILKPGGGTSGGLLGGLLGKVTSVIPGLNNIIDIKVTDPQLLELGLVQSPDGHRLYVTIPLGIKLQVNTPLVGASLLRLAVKLDITAEILAVRDKQERIHLVLGDCTHSPGSLQISLLDGLGPLPIQGLLDSLTGILNKVLPELVQGNVCPLVNEVLRGLDITLVHDIVNMLIHGLQFVIKV
modifications: V5/6His tag in recombinant form
notes: rSPLUNC1 is the purified V5/6His-tagged recombinant form
As for B1, the “overall current of ENaC containing βS518C mutant after MTSET” value is listed as “still reduced”.
